Laboratory results taken from US20160303232A1 (Merrimack Pharmaceuticals, Inc., priority 2015, published 2016).
“Also recorded” adds a separate entry of the source. Where a name gives a salt, the structure may show the parent alone.

B1: seribantumab: human monoclonal anti-ErbB3 IgG2; heavy chain SEQ ID NO:7, light chain SEQ ID NO:8 (antibody, listed as Homo sapiens)
heavy: EVQLLESGGGLVQPGGSLRLSCAASGFTFSHYVMAWVRQAPGKGLEWVSSISSSGGWTLYADSVKGRFTISRDNSKNTLYLQMNSLRAEDTAVYYCTRGLKMATIFDYWGQGTLVTVSSASTKGPSVFPLAPCSRSTSESTAALGCLVKDYFPEPVTVSWNSGALTSGVHTFPAVLQSSGLYSLSSVVTVPSSNFGTQTYTCNVDHKPSNTKVDKTVERKCCVECPPCPAPPVAGPSVFLFPPKPKDTLMISRTPEVTCVVVDVSHEDPEVQFNWYVDGVEVHNAKTKPREEQFNSTFRVVSVLTVVHQDWLNGKEYKCKVSNKGLPAPIEKTISKTKGQPREPQVYTLPPSREEMTKNQVSLTCLVKGFYPSDIAVEWESNGQPENNYKTTPPMLDSDGSFFLYSKLTVDKSRWQQGNVFSCSVMHEALHNHYTQKSLSLSPGK
light: QSALTQPASVSGSPGQSITISCTGTSSDVGSYNVVSWYQQHPGKAPKLIIYEVSQRPSGVSNRFSGSKSGNTASLTISGLQTEDEADYYCCSYAGSSIFVIFGGGTKVTVLGQPKAAPSVTLFPPSSEELQANKATLVCLVSDFYPGAVTVAWKADGSPVKVGVETTKPSKQSNNKYAASSYLSLTPEQWKSHRSYSCRVTHEGSTVEKTVAPAECS

Columns and labels:
[1] = test system: NSCLC cell lines (A549, EKVX, H358, H322M, Calu-3, H661, H441, H1355, H430); assay: 3D spheroid proliferation assay with or without HRG and chemotherapy; format: cell-based, human; conditions: 5 nM HRG; docetaxel 111 nM, pemetrexed 1111 nM; 96hrs; three cell lines most responsive to HRG
Protocol: HRG-driven ErbB3 signaling mediates survival signaling through the PI3K/AKT pathway and has been implicated as a general mechanism that imparts insensitivity to cytotoxic chemotherapy. […] Proliferation was measured, in the presence or absence of HRG, in a panel of nine cell lines using 3D spheroid cultures.

[2] = test system: human ovarian epithelial carcinoma OVCAR8 cells; assay: OVCAR8 xenograft model of ovarian cancer, combination therapy study; format: in vivo, mouse; conditions: for tumor progression over time: FIGS. 7A-7C, monotherapy versus co-administration with fixed dose of seribantumab; for tumor growth, single agent: i.p., seribantumab 300 μg Q3D, irinotecan HCl 6.25 mg/kg Q7D, gemcitabine 25 mg/kg Q7D, paclitaxel 10 mg/kg Q7D, three weeks
Excerpt: In these xenograft studies, the mice were obtained from Charles River Laboratories. The mice were housed in Tecniplast® Individually Ventilated polycarbonate (Makrolon®) Cages (IVC) set in climate-controlled rooms and had free access to food and acidified water. A cell suspension of 8×10^6 cells/mouse, mixed 1:1 in reduced growth factor Matrigel™ (BD Biosciences, Cat #354230) and PBS was implanted by subcutaneous injection into the left flank of female, 4-5 week old nu/nu nude, Crl:NU-Foxn1^nu mice. Tumors were allowed to reach 250 mm^3 in size before randomization.
Mice were randomized as above into 8 groups of 10 mice each. […] Treatment continued for three weeks. Tumors were measured twice weekly and tumor volume calculated.

[3] = test system: HRG positive (HRG+) tumors; assay: Previous randomized phase II clinical trials of seribantumab plus standard of care, by HRG expression; format: in vivo, human; conditions: seribantumab added to standard-of-care therapy; patients with HRG expression at or above threshold / HRG+ tumors
[4] = Population pharmacokinetic analysis of seribantumab, combined phase I and phase II studies, two-compartment model; format: in vivo, human
Excerpt: Covariate selection evaluated potential relationships between baseline covariates (sex, race, age, weight, intended-dose, and study/indication) and volume of distribution and clearance. The results indicated significant relationships between weight, sex, and clearance, with the final parameter estimates provided in Table 1. […] In the presence of the relationship between weight and clearance, no significant relationship between volume (V) and weight (WT) were observed.

[5] = Clinical studies of seribantumab co-administered with full doses of chemotherapy (MTD, safety); format: in vivo, human; conditions: co-administered with standard doses of pemetrexed, paclitaxel or cabazitaxel; 40 mg/kg loading dose then weekly 20 mg/kg
[6] = fixed effect, final population PK estimate, 499 patients

Molecule | effect of HRG on inhibition of cell viability by chemotherapy (HRG-induced resistance) [1] | tumor progression over time [2] | tumor growth, single agent [2] | further results
CC(=O)O[C@@]12CO[C@@H]1C[C@H](O)[C@@]1(C)C(=O)[C@H](O)C3=C(C)[C@@H](OC(=O)[C@H](O)[C@@H](NC(=O)OC(C)(C)C)c4ccccc4)C[C@@](O)([C@@H](OC(=O)c4ccccc4)[C@H]21)C3(C)C [docetaxel, 1,7β,10β-trihydroxy-9-oxo-5β,20-epoxytax-11-ene-2α,4,13α-triyl 4-acetate 2-benzoate 13-{(2R,3S)-3-[(tert-butoxycarbonyl)amino]-2-hydroxy-3-phenylpropanoate}] | induces resistance; also recorded: decreased | – | – | –
Nc1ccn([C@@H]2O[C@H](CO)[C@@H](O)C2(F)F)c(=O)n1 [gemcitabine] | – | began to progress over time | inhibited tumor growth | –
CCc1c2c(nc3ccc(OC(=O)N4CCC(N5CCCCC5)CC4)cc13)-c1cc3c(c(=O)n1C2)COC(=O)[C@]3(O)CC [irinotecan HCl] | – | began to progress over time | inhibited tumor growth | –
CC(=O)O[C@H]1C(=O)[C@@]2(C)[C@H]([C@H](OC(=O)c3ccccc3)[C@]3(O)C[C@H](OC(=O)[C@H](O)[C@@H](NC(=O)c4ccccc4)c4ccccc4)C(C)=C1C3(C)C)[C@]1(OC(C)=O)CO[C@@H]1C[C@@H]2O [paclitaxel] | – | began to progress over time | inhibited tumor growth | –
Nc1nc(=O)c2c(CCc3ccc(C(=O)N[C@@H](CCC(=O)O)C(=O)O)cc3)c[nH]c2[nH]1 [pemetrexed, (2S)-2-{[4-[2-(2-amino-4-oxo-1,7-dihydropyrrolo[2,3-d]pyrimidin-5-yl)ethyl]benzoyl]amino}pentanedioic acid] | induces resistance; also recorded: decreased | – | – | –
B1 | – | – | significantly suppressed tumor growth | progression-free survival (PFS) [3]: improved progression-free survival; also recorded: increased PFS; CL [4, 6]: 3.15 L/wk; Q [4, 6]: 2.92 L/wk; V [4, 6]: 3.23 L; V2 [4, 6]: 2.68 L; Cov CL and V ([4]; random effect): 27%; Omega CL ([4]; random effect): 36%; Omega V ([4]; random effect): 37%; maximum tolerated dose (MTD) [5]: no MTD was identified; also recorded: no maximum tolerated dose (MTD) reached
